Laboratory results published in patent US20220098591, “STEM-LOOP COMPOSITIONS AND METHODS FOR INHIBITING VASCULAR ENDOTHELIAL GROWTN FACTOR” (DRIVE THERAPEUTICS LLC, published 2022).

target: VEGF-A121 (Homo sapiens, UniProt P15692 SEQ:1-121); experiment: competition; TR-FRET; conditions: tags: glycan-biotinylated for SPR/FRET/AlphaLISA; Acro BioSystems, Biolegend; chain copies: 2 (stated)
Method: Briefly, for competition TR-FRET, 2-fold dilutions of thermally equilibrated aptamers were made in TR-FRET Buffer (50 mM MOPS, pH 7.4, 125 mM NaCl, 5 mM KCl, 50 μM CHAPS, 0.1 mg/mL BSA, 1 mM CaCl₂, and 1 mM MgCl₂). 5 μL of aptamer or control solution was added to a 15 μL mix of glycan biotinylated […] (5 nM final), ALEXA FLUOR® 647-labeled Aptamer (30 nM final), and Streptavidin-Eu (Perkin Elmer; 2.5 nM final) in a black wall low volume 384 well plate (Greiner). For control, 5 μl of 1000-fold excess of unlabeled parent aptamer or 5 μl TR-FRET buffer alone was added to the mix of ALEXA FLUOR® 647-labeled aptamer, biotin-VEGF-A, and Streptavidin-Eu. The plate was covered with a plate seal and subsequently incubated in the dark for 1 hour at room temperature. The plate was read on a Biotek CYTATION™ 5 plate reader. Samples were excited at 330 nm and fluorescent values were collected at 665 nm. Data analysis was performed by subtracting the background value and plotting as percent inhibition, normalized to baseline in the absence of competitor. The values were fit by [Inhibitor] vs. response-Variable slope (four parameters) using GraphPad Prism Version 7.0 and then normalized to aptamer control to obtain an IC₅₀ relative to parent aptamer. Data is presented as log values of relative IC₅₀.
Activity of each of these variants were tested using a time resolved competition TR-FRET assay, as described in Example 7, in which a labeled parent was competed with increasing concentrations of unlabeled variants for binding to VEGF-A₁₂₁.

Chain of VEGF-A121 (P15692 other isoform, or with tags, fused parts or gaps): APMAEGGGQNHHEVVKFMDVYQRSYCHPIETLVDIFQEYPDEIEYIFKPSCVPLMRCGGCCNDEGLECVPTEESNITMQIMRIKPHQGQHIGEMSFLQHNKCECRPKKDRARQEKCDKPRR

Binder	binding result	binding signal
AGGCCGCAUCCGCGCGGAGGGGUUUCAUUAUCCCGUUUUGCGGCUU (ssRNA, all G 2'-F; A,C,U 2'-OMe; 5' C6NH2; 3' idT) [Aptamer 122]	binds	
AGGCCGCUUCCGCGCGGAGGGGUUUCAUUAUCCCGUUUAGCGGCUU (ssRNA, all G 2'-F; A,C,U 2'-OMe; 5' C6NH2; 3' idT) [Aptamer 123]	binds	
AGGCCGACUCCGCGCGGAGGGGUUUCAUUAUCCCGUUUGUCGGCUU (ssRNA, all G 2'-F; A,C,U 2'-OMe; 5' C6NH2; 3' idT) [Aptamer 125]	binds	
AGGCCGUCUCCGCGCGGAGGGGUUUCAUUAUCCCGUUUGACGGCUU (ssRNA, all G 2'-F; A,C,U 2'-OMe; 5' C6NH2; 3' idT) [Aptamer 126]	binds	
AGGCCGCCUCAGCGCUGAGGGGUUUCAUUAUCCCGUUUGGCGGCUU (ssRNA, all G 2'-F; A,C,U 2'-OMe; 5' C6NH2; 3' idT) [Aptamer 178]	binds	
AGGCCGCCUCCGCGCGGAAGGGUUUCAUUAUCCUGUUUGGCGGCUU (ssRNA, all G 2'-F; A,C,U 2'-OMe; 5' C6NH2; 3' idT) [Aptamer 112]		> 100 fold worse IC50 vs Aptamer 26
AGGCCGCCUCCGCGCGGAUGGGUUUCAUUAUCCAGUUUGGCGGCUU (ssRNA, all G 2'-F; A,C,U 2'-OMe; 5' C6NH2; 3' idT) [Aptamer 113]		> 100 fold worse IC50 vs Aptamer 26
AGGCCGCCUCCGCGCGGACGGGUUUCAUUAUCCGGUUUGGCGGCUU (ssRNA, all G 2'-F; A,C,U 2'-OMe; 5' C6NH2; 3' idT) [Aptamer 114]		> 100 fold worse IC50 vs Aptamer 26
AGGCCGCCUCCGCGCGGAGUGGUUUCAUUAUCACGUUUGGCGGCUU (ssRNA, all G 2'-F; A,C,U 2'-OMe; 5' C6NH2; 3' idT) [Aptamer 116]		> 100 fold worse IC50 vs Aptamer 26
AGGCCGCCUCCGCGCGGAGCGGUUUCAUUAUCGCGUUUGGCGGCUU (ssRNA, all G 2'-F; A,C,U 2'-OMe; 5' C6NH2; 3' idT) [Aptamer 117]		> 100 fold worse IC50 vs Aptamer 26
AGGCCGCCUCCGCGCGGAGGGCUUUCAUUAGCCCGUUUGGCGGCUU (ssRNA, all G 2'-F; A,C,U 2'-OMe; 5' C6NH2; 3' idT) [Aptamer 127]		> 100 fold worse IC50 vs Aptamer 26
AGGCCGCCUCCGCGCGGAGGUCUUUCAUUAGACCGUUUGGCGGCUU (ssRNA, all G 2'-F; A,C,U 2'-OMe; 5' C6NH2; 3' idT) [Aptamer 129]		> 100 fold worse IC50 vs Aptamer 26
AGGCCGCCUCCGCGCGGAGGUGUUUCAUUACACCGUUUGGCGGCUU (ssRNA, all G 2'-F; A,C,U 2'-OMe; 5' C6NH2; 3' idT) [Aptamer 130]		> 100 fold worse IC50 vs Aptamer 26
AGGCCGCCUCCGCGCGGAGGAGUUUCAUUACUCCGUUUGGCGGCUU (ssRNA, all G 2'-F; A,C,U 2'-OMe; 5' C6NH2; 3' idT) [Aptamer 131]		> 100 fold worse IC50 vs Aptamer 26
AGGCCGCCUCCGCGCGGAGGCGUUUCAUUACGCCGUUUGGCGGCUU (ssRNA, all G 2'-F; A,C,U 2'-OMe; 5' C6NH2; 3' idT) [Aptamer 132]		> 100 fold worse IC50 vs Aptamer 26
AGGCCGCCUCCGCGCGGAGGGGUUCAUUUCCCGUUUGGCGGCUU (ssRNA, all G 2'-F; A,C,U 2'-OMe; 5' C6NH2; 3' idT) [Aptamer 108]		> 100 fold worse IC50 vs Aptamer 26
AGGCCGCCACCGCGCGGAGGGGUUUCAUUAUCCCGUUUGGCGGCUU (ssRNA, all G 2'-F; A,C,U 2'-OMe; 5' C6NH2; 3' idT) [Aptamer 146]		~3 fold better IC50 vs Aptamer 26
AGGCCGCCGCCGCGCGGAGGGGUUUCAUUAUCCCGUUUGGCGGCUU (ssRNA, all G 2'-F; A,C,U 2'-OMe; 5' C6NH2; 3' idT) [Aptamer 148]	binds	
AGGCCGCCUCCACGCGGAGGGGUUUCAUUAUCCCGUUUGGCGGCUU (ssRNA, all G 2'-F; A,C,U 2'-OMe; 5' C6NH2; 3' idT) [Aptamer 149]		> 100 fold worse IC50 vs Aptamer 26
AGGCCGCCUCCCCGCGGAGGGGUUUCAUUAUCCCGUUUGGCGGCUU (ssRNA, all G 2'-F; A,C,U 2'-OMe; 5' C6NH2; 3' idT) [Aptamer 150]		> 100 fold worse IC50 vs Aptamer 26
AGGCCGCCUCCGCACGGAGGGGUUUCAUUAUCCCGUUUGGCGGCUU (ssRNA, all G 2'-F; A,C,U 2'-OMe; 5' C6NH2; 3' idT) [Aptamer 155]		> 100 fold worse IC50 vs Aptamer 26
